Laboratory results published in publication PMC5095980.

Biological target: Human lactoferrin (human)
Experiment: small angle neutron scattering (SANS); iron containing samples in solution, 7 °C: iron saturated Lf (L3770; 100 mM MES, 150 mM NaCl, D2O) at pD 5 and pD 7, and partially saturated Lf (L3770 in the EDTA buffer, pD 5); concentration series 2.5-50 mg/ml, form factor extrapolated to c = 0, aggregates modelled by a Guinier term added to the monomer form factor

Human lactoferrin (natural protein)
stoichiometry N: 10 monomers
